{"source": "patent US6313088A", "about": "“8-[(2-hydroxy-4-methoxy benzoyl) amino]-octanoic acid compositions for delivering active agents” (Emisphere Technologies, Inc., priority 1997, dated 2001)", "design": "species or system Rats", "details": "rat, in vivo, 1 mg/kg", "description": "Rats were administered the dosing composition by intracolonic instillation.", "data": [{"substance": "interferon", "values": [{"measurement": "Mean peak serum interferon concentration", "value": "79±100"}]}]}
